{"source": "patent US20030017596A1", "molecular_target": "Recombinant B19 parvovirus empty capsid particles (VP1/2) (B19 parvovirus) (UniProt P07299)", "test": "cell-based or functional assay", "data": [{"substance": "anti-B19 parvovirus monoclonal antibody (MAB8292)", "values": [{"measurement": "BFU-E colony counts (% of medium control), fetal liver cells; capsid 7 µg/ml + 0.02 µg/mL Mab (capsid only: 43%) (% of medium control)", "result": 52}, {"measurement": "BFU-E colony counts (% of medium control), fetal liver cells; capsid 7 µg/ml + 0.2 µg/mL Mab (capsid only: 43%) (% of medium control)", "result": 52}, {"measurement": "BFU-E colony counts (% of medium control), fetal liver cells; capsid 7 µg/ml + 2.0 µg/mL Mab (capsid only: 43%) (% of medium control)", "result": 69}, {"measurement": "BFU-E colony counts (% of medium control), fetal liver cells; capsid 7 µg/ml + 20.0 µg/mL Mab (capsid only: 43%) (% of medium control)", "result": "> 100"}, {"measurement": "CFU-GEMM colony counts (% of medium control), fetal liver cells; capsid 7 µg/ml + 0.02 µg/mL Mab (capsid only: 21%) (% of medium control)", "result": 21}, {"measurement": "CFU-GEMM colony counts (% of medium control), fetal liver cells; capsid 7 µg/ml + 0.2 µg/mL Mab (capsid only: 21%) (% of medium control)", "result": 19}, {"measurement": "CFU-GEMM colony counts (% of medium control), fetal liver cells; capsid 7 µg/ml + 2.0 µg/mL Mab (capsid only: 21%) (% of medium control)", "result": 45}, {"measurement": "CFU-GEMM colony counts (% of medium control), fetal liver cells; capsid 7 µg/ml + 20.0 µg/mL Mab (capsid only: 21%) (% of medium control)", "result": 67}, {"measurement": "CFU-GM colony counts (% of medium control), fetal liver cells; capsid 7 µg/ml + 0.02 µg/mL Mab (capsid only: 30%) (% of medium control)", "result": 30}, {"measurement": "CFU-GM colony counts (% of medium control), fetal liver cells; capsid 7 µg/ml + 0.2 µg/mL Mab (capsid only: 30%) (% of medium control)", "result": 21}, {"measurement": "CFU-GM colony counts (% of medium control), fetal liver cells; capsid 7 µg/ml + 2.0 µg/mL Mab (capsid only: 30%) (% of medium control)", "result": 35}, {"measurement": "CFU-GM colony counts (% of medium control), fetal liver cells; capsid 7 µg/ml + 20.0 µg/mL Mab (capsid only: 30%) (% of medium control)", "result": 74}]}]}
